Data as given in article PMC6981147.

Columns and labels:
[1] = target: Rpn13 proteasome (reconstituted proteasome harboring the rpn1-ARR and rpn10-UIM mutations) (S. cerevisiae) (UniProt P38764)
[2] = target: Rpn1 proteasome (reconstituted proteasome harboring the rpn10-UIM and rpn13-pru mutations) (S. cerevisiae) (UniProt P38764)
[3] = target: Rpn13 proteasome (rpn1-ARR, rpn10-uim) (S. cerevisiae) (UniProt P38764)
[4] = target: Rpn10/13 proteasome (rpn1-ARR) (S. cerevisiae) (UniProt P38764)
[5] = target: TM (triple mutant) proteasome (rpn1-ARR, rpn10-uim, rpn13-pru) (S. cerevisiae) (UniProt P38764)
[6] = target: wild-type proteasome (reconstituted from regulatory particle and core particle) (S. cerevisiae) (UniProt P38764)
[7] = target: Rpn10 proteasome (rpn1-ARR, rpn13-pru) (S. cerevisiae) (UniProt P38764)

Supplementary Table 4: KM of degradation (Michaelis-Menten analysis of initial rates of loss of GFP fluorescence, 25 nM proteasome, 1 mM ATP, 30 °C) [3] | Supplementary Table 4: KM of degradation (Michaelis-Menten analysis of initial rates of loss of GFP fluorescence, 25 nM proteasome, 1 mM ATP, 30 °C) [5] | Supplementary Table 4: KM of degradation (Michaelis-Menten analysis of initial rates of loss of GFP fluorescence, 25 nM proteasome, 1 mM ATP, 30 °C) [6] | Substance | other results
5.72 µM | 5.28 µM |  | Ub5(K48)-GFP-35: base protein Ub-GFP-35 with a K48-linked chain of four ubiquitins attached to its ubiquitin domain (from UniProt P0CG63 1-76; P0CG63 1-76) | Supplementary Table 4: KM of degradation (Michaelis-Menten analysis of initial rates of loss of GFP fluorescence, 25 nM proteasome, 1 mM ATP, 30 °C) [4]: 0.058 µM
0.816 µM | 2.06 µM | 0.333 µM | Ub5(K63)-GFP-35: base protein Ub-GFP-35 with a K63-linked chain of four ubiquitins attached to its ubiquitin domain (from UniProt P0CG63 1-76; P0CG63 1-76) | Supplementary Table 4: KM of degradation (Michaelis-Menten analysis of initial rates of loss of GFP fluorescence, 25 nM proteasome, 1 mM ATP, 30 °C) [7]: 0.428 µM

Further lines, the substance ahead of its results:

Substance | Supplementary Table 4: KM of degradation (Michaelis-Menten analysis of initial rates of loss of GFP fluorescence, 25 nM proteasome, 1 mM ATP, 30 °C) [3] | Supplementary Table 4: KM of degradation (Michaelis-Menten analysis of initial rates of loss of GFP fluorescence, 25 nM proteasome, 1 mM ATP, 30 °C) [5] | Supplementary Table 4: KM of degradation (Michaelis-Menten analysis of initial rates of loss of GFP fluorescence, 25 nM proteasome, 1 mM ATP, 30 °C) [6] | other results
UBL-GFP-35 (from UniProt P32628 1-80; P00175 1-35) |  |  |  | initial rate of degradation (GFP fluorescence), single turnover, 5 nM substrate, 25 nM proteasome, 1 mM ATP, 30 °C; against Ub5(K48)-GFP-35 or Ub9(K48)-GFP-35 on the same proteasome [1]: > 4 fold
UBL-GFP-95 (from UniProt P32628 1-80) |  |  |  | initial rate of degradation (GFP fluorescence), single turnover, 5 nM substrate, 25 nM proteasome, 1 mM ATP, 30 °C; against Ub5(K48)-GFP-95 on the same proteasome [2]: 4 fold
Ub9(K48)-GFP-35: base protein Ub-GFP-35 with a K48-linked chain of eight ubiquitins attached to its ubiquitin domain (from UniProt P0CG63 1-76; P0CG63 1-76) | 1.1 µM | 1.68 µM | 0.05 µM | 
